Results taken from publication PMC3507880, “Rationale-Based Engineering of a Potent Long-Acting FGF21 Analog for the Treatment of Type 2 Diabetes” (PLoS ONE, 2012).
Positions count from the first letter of the chain named. Each block holds one binder with its values, some of them ahead of it.

Columns and labels:
[1] = biological target: Q9NSA1; assay: SEC; SEC-HPLC (Bio-Sil SEC-250, 2x PBS with 2% isopropyl alcohol); 65 mg/ml in 10 mM potassium phosphate, 5% sorbitol, pH 8.0; stored at 25°C or 4°C for 2 to 9 days; high molecular weight species as % of total
[2] = biological target: T1, human βKlotho (human, UniProt Q86Z14 1-996); assay: cell-based or functional assay
T1 sequence (looked up): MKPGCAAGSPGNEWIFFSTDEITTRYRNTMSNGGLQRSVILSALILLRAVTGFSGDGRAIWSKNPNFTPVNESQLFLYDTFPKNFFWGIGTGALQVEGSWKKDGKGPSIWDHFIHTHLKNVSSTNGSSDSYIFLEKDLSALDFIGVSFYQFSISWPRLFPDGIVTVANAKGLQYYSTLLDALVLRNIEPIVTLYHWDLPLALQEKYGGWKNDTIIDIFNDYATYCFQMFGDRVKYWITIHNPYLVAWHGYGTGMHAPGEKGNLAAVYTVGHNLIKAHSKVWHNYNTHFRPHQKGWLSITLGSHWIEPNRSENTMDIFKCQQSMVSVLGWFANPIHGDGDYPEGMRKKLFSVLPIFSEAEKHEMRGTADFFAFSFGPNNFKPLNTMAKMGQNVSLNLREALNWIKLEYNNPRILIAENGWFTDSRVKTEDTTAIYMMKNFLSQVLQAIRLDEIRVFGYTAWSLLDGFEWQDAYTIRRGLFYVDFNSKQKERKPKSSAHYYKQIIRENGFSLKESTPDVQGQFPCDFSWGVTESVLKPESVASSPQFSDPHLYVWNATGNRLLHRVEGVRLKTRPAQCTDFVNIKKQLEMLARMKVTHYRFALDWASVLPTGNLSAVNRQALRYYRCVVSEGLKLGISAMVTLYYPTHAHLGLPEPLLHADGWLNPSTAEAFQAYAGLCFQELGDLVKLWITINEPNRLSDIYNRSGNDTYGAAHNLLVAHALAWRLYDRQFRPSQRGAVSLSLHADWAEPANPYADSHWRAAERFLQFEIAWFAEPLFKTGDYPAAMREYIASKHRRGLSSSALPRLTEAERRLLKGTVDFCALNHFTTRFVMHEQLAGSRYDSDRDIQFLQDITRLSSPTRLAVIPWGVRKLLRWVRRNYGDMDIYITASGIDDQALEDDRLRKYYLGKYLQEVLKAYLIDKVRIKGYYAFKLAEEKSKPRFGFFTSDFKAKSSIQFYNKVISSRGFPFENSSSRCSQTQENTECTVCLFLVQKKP

B1: Fc-FGF21(RG) (protein)
chain: HPIPDSSPLLQFGGQVRQRYLYTDDAQQTEAHLEIREDGTVGGAADQSPESLLQLKALKPGVIQILGVKTSRFLCQRPDGALYGSLHFDPEACSFRERLLEDGYNVYQSEAHGLPLHLPGNKSPHRDPAPRGPARFLPLPGLPPALPEPPGILAPQPPDVGSSDPLSMVGGSQGRSPSYAS
aggregates, percent of total, over 9 days [1]: the amount of aggregates remained below 3% at all tested conditions

B2: wild type human mature FGF21 (protein)
chain: B1 chain with R98L, G171P
high molecular aggregates, percent of total, day 5 [1]: the high molecular aggregates accounted for 50% and 25% of total native FGF21 and Fc-FGF21, respectively

Elk1-dependent luciferase reporter in 293T cells stably overexpressing human βKlotho or CHO cells overexpressing human βKlotho and human FGFR1c; maximal activity relative to native FGF21 [2]: ~80%
B3: Fc-FGF21 (N-terminal Fc fusion of human mature FGF21, wild type) (Fc fusion, UniProt Q9NSA1 29-209, looked up)
chain: B1 chain with R98L, G171P
high molecular aggregates, percent of total, day 5 [1]: the high molecular aggregates accounted for 50% and 25% of total native FGF21 and Fc-FGF21, respectively
